Source: IntAct's records for PubMed 24630722

B1: Interferon-inducible protein AIM2 (Homo sapiens), O14862 (parent)
chain: MESKYKEILLLTGLDNITDEELDRFKFFLSDEFNIATGKLHTANRIQVATLMIQNAGAVSAVMKTIRIFQKLNYMLLAKRLQEEKEKVDKQYKSVTKPKPLSQAEMSPAASAAIRNDVAKQRAAPKVSPHVKPEQKQMVAQQESIREGFQKRCLPVMVLKAKKPFTFETQEGKQEMFHATVATEKEFFFVKVFNTLLKDKFIPKRIIIIARYYRHSGFLEVNSASRVLDAESDQKVNVPLNIIRKAGETPKINTLQTQPLGTIVNGLFVVQKVTEKKKNILFDLSDNTGKMEVLGVRNEDTMKCKEGDKVRLTFFTLSKNGEKLQLTSGVHSTIKVIKAKKKT

Variants of: B1
Settings: with asc_human PYCARD

Row | Variant | effect of a mutation on the interaction
1 | MESKYKEILLLTGLDNITDEELDRFKFFLSDEFNIATGELHTANRIQVATLMIQNAGAVSAVMKTIRIFQKLNYMLLAKRLQEEKEKVDKQYKSVTKPKPLSQAEMSPAASAAIRNDVAKQRAAPKVSPHVKPEQKQMVAQQESIREGFQKRCLPVMVLKAKKPFTFETQEGKQEMFHATVATEKEFFFVKVFNTLLKDKFIPKRIIIIARYYRHSGFLEVNSASRVLDAESDQKVNVPLNIIRKAGETPKINTLQTQPLGTIVNGLFVVQKVTEKKKNILFDLSDNTGKMEVLGVRNEDTMKCKEGDKVRLTFFTLSKNGEKLQLTSGVHSTIKVIKAKKKT [K39E] | decreasing interaction strength
2 | MESKYKEILLLTGLDNITDEELDRFKFFLSDEFNIATGKLHTANRIQVATLMIQNAGAVSAVMKTIRIFQKLNRMLLAKRLQEEKEKVDKQYKSVTKPKPLSQAEMSPAASAAIRNDVAKQRAAPKVSPHVKPEQKQMVAQQESIREGFQKRCLPVMVLKAKKPFTFETQEGKQEMFHATVATEKEFFFVKVFNTLLKDKFIPKRIIIIARYYRHSGFLEVNSASRVLDAESDQKVNVPLNIIRKAGETPKINTLQTQPLGTIVNGLFVVQKVTEKKKNILFDLSDNTGKMEVLGVRNEDTMKCKEGDKVRLTFFTLSKNGEKLQLTSGVHSTIKVIKAKKKT [Y74R] | disrupting interaction strength
3 | MESKYKEILLLTGLDNITDEELDRFKGFLSDEFNIATGKLHTANRIQVATLMIQNAGAVSAVMKTIRIFQKLNYMLLAKRLQEEKEKVDKQYKSVTKPKPLSQAEMSPAASAAIRNDVAKQRAAPKVSPHVKPEQKQMVAQQESIREGFQKRCLPVMVLKAKKPFTFETQEGKQEMFHATVATEKEFFFVKVFNTLLKDKFIPKRIIIIARYYRHSGFLEVNSASRVLDAESDQKVNVPLNIIRKAGETPKINTLQTQPLGTIVNGLFVVQKVTEKKKNILFDLSDNTGKMEVLGVRNEDTMKCKEGDKVRLTFFTLSKNGEKLQLTSGVHSTIKVIKAKKKT [F27G] | disrupting interaction strength
4 | MESKYKEILAATGLDNITDEELDRFKFFLSDEFNIATGKLHTANRIQVATLMIQNAGAVSAVMKTIRIFQKLNYMLLAKRLQEEKEKVDKQYKSVTKPKPLSQAEMSPAASAAIRNDVAKQRAAPKVSPHVKPEQKQMVAQQESIREGFQKRCLPVMVLKAKKPFTFETQEGKQEMFHATVATEKEFFFVKVFNTLLKDKFIPKRIIIIARYYRHSGFLEVNSASRVLDAESDQKVNVPLNIIRKAGETPKINTLQTQPLGTIVNGLFVVQKVTEKKKNILFDLSDNTGKMEVLGVRNEDTMKCKEGDKVRLTFFTLSKNGEKLQLTSGVHSTIKVIKAKKKT [L10A;L11A] | disrupting interaction strength
5 | MESKYKEILLLTGLDNITDEELDEFKFFLSDEFNIATGKLHTANRIQVATLMIQNAGAVSAVMKTIRIFQKLNYMLLAKRLQEEKEKVDKQYKSVTKPKPLSQAEMSPAASAAIRNDVAKQRAAPKVSPHVKPEQKQMVAQQESIREGFQKRCLPVMVLKAKKPFTFETQEGKQEMFHATVATEKEFFFVKVFNTLLKDKFIPKRIIIIARYYRHSGFLEVNSASRVLDAESDQKVNVPLNIIRKAGETPKINTLQTQPLGTIVNGLFVVQKVTEKKKNILFDLSDNTGKMEVLGVRNEDTMKCKEGDKVRLTFFTLSKNGEKLQLTSGVHSTIKVIKAKKKT [R24E] | disrupting interaction strength
6 | MESKYKEILLLTGLDNITDEELDRFKFFLSDEFNIATEKLHTANRIQVATLMIQNAGAVSAVMKTIRIFQKLNYMLLAKRLQEEKEKVDKQYKSVTKPKPLSQAEMSPAASAAIRNDVAKQRAAPKVSPHVKPEQKQMVAQQESIREGFQKRCLPVMVLKAKKPFTFETQEGKQEMFHATVATEKEFFFVKVFNTLLKDKFIPKRIIIIARYYRHSGFLEVNSASRVLDAESDQKVNVPLNIIRKAGETPKINTLQTQPLGTIVNGLFVVQKVTEKKKNILFDLSDNTGKMEVLGVRNEDTMKCKEGDKVRLTFFTLSKNGEKLQLTSGVHSTIKVIKAKKKT [G38E] | decreasing interaction strength
7 | MESKYKEILLLTGLRNITDEELDRFKFFLSDEFNIATGKLHTANRIQVATLMIQNAGAVSAVMKTIRIFQKLNYMLLAKRLQEEKEKVDKQYKSVTKPKPLSQAEMSPAASAAIRNDVAKQRAAPKVSPHVKPEQKQMVAQQESIREGFQKRCLPVMVLKAKKPFTFETQEGKQEMFHATVATEKEFFFVKVFNTLLKDKFIPKRIIIIARYYRHSGFLEVNSASRVLDAESDQKVNVPLNIIRKAGETPKINTLQTQPLGTIVNGLFVVQKVTEKKKNILFDLSDNTGKMEVLGVRNEDTMKCKEGDKVRLTFFTLSKNGEKLQLTSGVHSTIKVIKAKKKT [D15R] | disrupting interaction strength
